One block for each compound: values may come before it.
How the values were obtained:
[1] = mouse, in vivo, cited from earlier work
Source text: Using ^125I labelled IRAs, we tested the ability of intravenously administered IRAs to cross the blood-brain barrier (BBB) in mice. […] The BBB is a functional interface between blood and brain that allows for regulated entry of circulating substrates.

[2] = mouse, in vivo
Source text: Initial distribution studies used male and female CD-1 mice (8–10 weeks old) purchased from Charles River Laboratories (Seattle, WA). Follow-up studies performed in male and female hemizygous APP/PS1 mice and WT littermates on a C57BL/6J background (Cat 034832-JAX) were purchased from the Mutant Mouse Resource & Research Centers (MMRRC-NIH) at approximately 2 months of age.
IRA administration followed the IN protocol outlined in Rhea et al.. Mice were anesthetized with 40% urethane intraperitoneally. […] Delicate delivery with negligible force was necessary to prevent injuring the turbinates or penetrating the cribriform plate. Tips were also examined for the presence of blood to ensure no cribriform plate rupture took place. Mice remained in the supine state for a duration of at least 30 s before being placed onto the left side.
Collection of blood occurred from the right carotid artery, and the whole brain and olfactory bulbs (Olf) were removed at 5, 15, 30, and 60 min time points after IN administration. […] Radioactivity levels were calculated for the whole brain by combining the radioactivity of each brain region and dividing by the total weights. The same was done for the neocortex (Crtx) by combining radioactivity and weights for the FC, PC, and OC. […] A 50 µl aliquot of the serum was then collected for measurement of radioactivity. Radioactivity amounts for each individual brain region, olfactory bulb, and serum were measured in a Wizard2 Automatic Gamma Counter (PerkinElmer, Waltham, MA) for 30 min. ^14C-DA5-CH samples were solubilized with Solvable (Sigma), transferred to scintillation vials containing Ecoscint (National Diagnostics) and ^14C was measured in a beta counter (TriCarb 3110TR, Perkin-Elmer). Radioactivity for ^125I was measured by counts per minute (cpm) while ^14C was measured by disintegrations per minute (dpm). […]
Injected dose percentages per ml of serum (%Inj/ml) were calculated by: […]
where Inj is dose of cpm administered and cpm/ml is the amount of radioactivity in one ml of serum. […]

[3] = in vivo; cited from earlier work
Description: IRAs are forms of these hormones modified to prolong their otherwise very short half-lives in plasma (less than 2 min).

[4] = Stability of IRA following IN delivery (TCA acid precipitation of brain, olfactory bulb, serum) in CD-1 mice; conditions: mouse, in vivo
Description: Blood was centrifuged at 3200 xg for 10 min. Serum (50 µl) was combined with 250 µl of BSA/LR, then combined with 300 µl of 30% TCA. Tissues were homogenized in 0.6 ml of 1% BSA/LR solution using a bead beater for 30 s at 4800 rpm twice on ice. […] Equal parts supernatant (300 µl) was mixed with an equal volume of 30% TCA. Serum and brain acid precipitated samples were centrifuged at 5400 xg for 10 min. The supernatant (S) was transferred to a new tube, leaving behind the pellet (P). The final S and P fractions for serum, olfactory bulb, and whole brain were counted separately, and the percentage of radioactivity was calculated using.
%Precip = 100 x (P)/(S + P) as described.
All biological samples were corrected for processing degradation by dividing their values by this processing control (PCon) value and multiplying by 100.

Compound: dulaglutide (BAF): dulaglutide bioactive fragment, single IRA, 3315 Da, purchased from GLPBIO (catalog # GC31520); 125I-labelled
- Rate of crossing the BBB after IV administration [1]: quickly
- Rate of whole brain uptake an hour after IV administration [1]: relatively high
- Serum level following IN delivery [2]: highest levels
- Sex difference in maximum uptake in hypothalamus [2]: females having less uptake

Compound: glucagon-like peptide-1 [GLP-1]
- Half-life in plasma [3]: less than 2 min

Compound: liraglutide: incretin receptor agonist, cited BBB data
- Time for brain detection after systemic administration [1]: took hours for brain detection

Compound: lixisenatide: incretin receptor agonist, cited IV BBB data
- Rate of crossing the BBB after IV administration [1]: slow rates

- Acid precipitation (AP%) olfactory bulb [4]: 100.9 ± 0.5%
- Acid precipitation (AP%) serum [4]: 86.9 ± 1.1%
- Acid precipitation (AP%) whole brain [4]: 74.7 ± 17.7%
- Whole brain maximal uptake relative to the other IRAs [2]: three-fold less uptake
Compound: CC[C@H](C)[C@H](NC(=O)[C@H](Cc1ccccc1)NC(=O)[C@H](CCC(=O)O)NC(=O)[C@H](CCCCNC(=O)COCCOCCNC(=O)COCCOCCNC(=O)CC[C@H](NC(=O)CCCCCCCCCCCCCCCCC(=O)O)C(=O)O)NC(=O)[C@H](C)NC(=O)[C@H](C)NC(=O)[C@H](CCC(N)=O)NC(=O)CNC(=O)[C@H](CCC(=O)O)NC(=O)[C@H](CC(C)C)NC(=O)[C@H](Cc1ccc(O)cc1)NC(=O)[C@H](CO)NC(=O)[C@H](CO)NC(=O)[C@@H](NC(=O)[C@H](CC(=O)O)NC(=O)[C@H](CO)NC(=O)[C@@H](NC(=O)[C@H](Cc1ccccc1)NC(=O)[C@@H](NC(=O)CNC(=O)[C@H](CCC(=O)O)NC(=O)C(C)(C)NC(=O)[C@@H](N)Cc1cnc[nH]1)[C@@H](C)O)[C@@H](C)O)C(C)C)C(=O)N[C@@H](C)C(=O)N[C@@H](Cc1c[nH]c2ccccc12)C(=O)N[C@@H](CC(C)C)C(=O)N[C@H](C(=O)N[C@@H](CCCNC(=N)N)C(=O)NCC(=O)N[C@@H](CCCNC(=N)N)C(=O)NCC(=O)O)C(C)C [Semaglutide]
- Rate of crossing the BBB after IV administration [1]: undetectable within an hour
- Rate of whole brain uptake an hour after IV administration [1]: undetectable
- Time for brain detection after systemic administration [1]: took hours for brain detection

Compound: albiglutide: incretin receptor agonist, cited IV BBB data
- Rate of crossing the BBB after IV administration [1]: quickly

Compound: tirzepatide: incretin receptor agonist, cited IV BBB data
- Rate of crossing the BBB after IV administration [1]: undetectable within an hour
